# Data reported in publication PMC6274866, “The 2β Splice Variation Alters the Structure and Function of the Stromal Interaction Molecule Coiled-Coil Domains” (International Journal of Molecular Sciences, 2018).
# B1: STIM1-2β-OASF (STIM1-OASF mutated to contain the VAASYLIQ (2β) insertion after G379) (domain or fragment, human, UniProt Q13586-1 234-491, looked up)
# chain: NRYSKEHMKKMMKDLEGLHRAEQSLHDLQERLHKAQEEHRTVEVEKVHLEKKLRDEINLAKQEAQRLKELREGTENERSRQKYAEEELEQVREALRKAEKELESHSSWYAPEALQKWLQLTHEVEVQYYNIKKQNAEKQLLVAKEGVAASYLIQAEKIKKKRNTLFGTFHVAHSSSLDDVDHKILTAKQALSEVTAALRERLHRWQQIEILCGFQIVNNPGIHSLVAALNIDPSWMGSTRPNPAHFIMTDDVDDMDEEIVSPLSMQ
# notes: Made by PCR-mediated site-directed mutagenesis of pET-28a-STIM1-OASF; A few vector residues probably remain after thrombin cleavage (surmise); source: E. coli BL21 (DE3), purified under denaturing conditions (guanidine-HCl, nickel-NTA), renatured, thrombin-cleaved, SEC
# Key:
# [1] = target: the molecule itself; assay: SEC-MALS; 1 mg/mL protein injected on Superdex 200 Increase 10/300 GL at 10 °C; 20 mM TRIS, 300 mM NaCl, 1 mM DTT, pH 8.0; with 25 mM CaCl2; stoichiometric ratio = MALS molecular weight / theoretical monomer mass
# [2] = target: the molecule itself; assay: SEC-MALS; 1 mg/mL protein injected on Superdex 200 Increase 10/300 GL at 10 °C; 20 mM TRIS, 300 mM NaCl, 1 mM DTT, pH 8.0; without CaCl2; stoichiometric ratio = MALS molecular weight / theoretical monomer mass
protein,measurement,setting,value
B1,stoichiometry N,[1],1.96
same,stoichiometry N,[2],2.02
